Data from publication PMC3252255, “Heterologous overexpression of Glomerella cingulata FAD-dependent glucose dehydrogenase in Escherichia coli and Pichia pastoris” (Microbial Cell Factories, 2011).

Key:
[1] = biological target: T1, recGcGDH (recombinant Glomerella cingulata FAD-dependent glucose dehydrogenase) (Colletotrichum gloeosporioides, UniProt G8E4B5); experiment: UV/Vis absorption spectrum of purified enzyme, oxidized and glucose-reduced; format: binding; conditions: 50 mM citrate pH 5.5, room temperature; FAD bound as purified
T1 construct: gene gdh; native stop codon in primer, no tag; glycosylated, 88-131 kDa on SDS-PAGE, 67 kDa deglycosylated
T1 sequence (G8E4B5 17-600): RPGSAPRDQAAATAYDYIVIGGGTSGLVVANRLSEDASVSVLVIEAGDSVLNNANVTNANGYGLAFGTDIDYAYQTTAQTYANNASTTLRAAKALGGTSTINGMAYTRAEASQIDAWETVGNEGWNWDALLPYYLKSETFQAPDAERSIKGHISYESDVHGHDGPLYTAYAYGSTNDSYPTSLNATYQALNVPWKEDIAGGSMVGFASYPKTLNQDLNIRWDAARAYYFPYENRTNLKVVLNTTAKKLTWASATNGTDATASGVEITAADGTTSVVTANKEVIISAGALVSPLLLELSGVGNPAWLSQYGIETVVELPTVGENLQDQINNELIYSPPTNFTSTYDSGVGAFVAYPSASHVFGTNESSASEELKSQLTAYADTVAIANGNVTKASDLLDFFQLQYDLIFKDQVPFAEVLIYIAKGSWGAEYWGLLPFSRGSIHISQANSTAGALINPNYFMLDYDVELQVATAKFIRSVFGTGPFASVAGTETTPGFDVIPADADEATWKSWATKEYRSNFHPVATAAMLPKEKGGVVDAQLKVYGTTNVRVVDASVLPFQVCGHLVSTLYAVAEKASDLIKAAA

[2] = substrate: OC[C@H]1OC(O)[C@H](O)[C@@H](O)[C@@H]1O; experiment: steady-state kinetics, spectrophotometric ferrocenium reduction; format: biochemical, Colletotrichum gloeosporioides; conditions: pH 5.5, 30°C, ferrocenium hexafluorophosphate as electron acceptor (20 μM in table, 200 μM in methods), also measured at pH 7.5
Text: steady-state kinetics, spectrophotometric ferrocenium reduction on recGcGDH (recombinant Glomerella cingulata FAD-dependent glucose dehydrogenase)

Q: How did the “UV/Vis absorption spectrum of purified enzyme, oxidized and glucose-reduced” value [1] turn out when `Cc1cc2nc3c(=O)[nH]c(=O)nc-3n(C[C@H](O)[C@H](O)[C@H](O)COP(=O)(O)OP(=O)(O)OC[C@H]3O[C@@H](n4cnc5c(N)ncnc54)[C@H](O)[C@@H]3O)c2cc1C` [FAD] was run?
A: Its value is “typical flavoprotein spectrum shows the same characteristics as the spectrum of wild-type GcGDH”.

B1: recGcGDH (recombinant Glomerella cingulata FAD-dependent glucose dehydrogenase) (Colletotrichum gloeosporioides) (protein)
chain: RPGSAPRDQAAATAYDYIVIGGGTSGLVVANRLSEDASVSVLVIEAGDSVLNNANVTNANGYGLAFGTDIDYAYQTTAQTYANNASTTLRAAKALGGTSTINGMAYTRAEASQIDAWETVGNEGWNWDALLPYYLKSETFQAPDAERSIKGHISYESDVHGHDGPLYTAYAYGSTNDSYPTSLNATYQALNVPWKEDIAGGSMVGFASYPKTLNQDLNIRWDAARAYYFPYENRTNLKVVLNTTAKKLTWASATNGTDATASGVEITAADGTTSVVTANKEVIISAGALVSPLLLELSGVGNPAWLSQYGIETVVELPTVGENLQDQINNELIYSPPTNFTSTYDSGVGAFVAYPSASHVFGTNESSASEELKSQLTAYADTVAIANGNVTKASDLLDFFQLQYDLIFKDQVPFAEVLIYIAKGSWGAEYWGLLPFSRGSIHISQANSTAGALINPNYFMLDYDVELQVATAKFIRSVFGTGPFASVAGTETTPGFDVIPADADEATWKSWATKEYRSNFHPVATAAMLPKEKGGVVDAQLKVYGTTNVRVVDASVLPFQVCGHLVSTLYAVAEKASDLIKAAA
notes: native stop codon in primer, no tag; glycosylated, 88-131 kDa on SDS-PAGE, 67 kDa deglycosylated
Q: With B1 as the molecule, how does the Km [2] read?
A: The Km was 10.1 ± 0.4 mM.

Q: What about the kcat [2] of the same molecule?
A: Its kcat is 179 ± 4 s⁻¹.

Q: And the kcat/Km [2]?
A: Its kcat/Km is 17700 M⁻¹ s⁻¹.
